Measured values from the supplement of paper PMC9112550, “Optimization of the antimicrobial peptide Bac7 by deep mutational scanning” (BMC Biology, 2022).

Test system: Escherichia coli TOP10
Test: shrunken log2 fold change of peptide-encoding DNA abundance (4.5 h post-induction vs induction); higher = less antimicrobial activity (less host growth inhibition)
Settings: time post-induction: 4.5 h; library: site-saturation at positions 5, 18, 19, 20
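Also: peptides expressed intracellularly from a pBAD plasmid library in pooled LB shake-flask culture, induced with 0.3% L-arabinose, DNA abundance read by NGS, three biological replicates, DESeq2 with apeglm shrinkage.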

Row | Sequence | shrunken log2 fold change
1 | RRIRSRPPRLPRPRPRPPCFPRP | -0.0133
2 | RRIRDRPPRLPRPRPRPPHHPRP | -0.0964
3 | RRIRKRPPRLPRPRPRPECAPRP | 0.339
4 | RRIRLRPPRLPRPRPRPINSPRP | 0.0605
5 | RRIRFRPPRLPRPRPRPEDWPRP | 0.181
6 | RRIRPRPPRLPRPRPRPCKRPRP | -0.0941
7 | RRIRDRPPRLPRPRPRPPTVPRP | 0.381
8 | RRIRFRPPRLPRPRPRPMTLPRP | -0.107
9 | RRIRKRPPRLPRPRPRPIENPRP | -0.0721
10 | RRIRFRPPRLPRPRPRPEYSPRP | 5.84e-05
11 | RRIRIRPPRLPRPRPRPRQEPRP | -0.131
12 | RRIRRRPPRLPRPRPRPHMMPRP | 0.176
13 | RRIRNRPPRLPRPRPRPTQDPRP | 0.387
14 | RRIRRRPPRLPRPRPRPNMIPRP | -0.914
15 | RRIRCRPPRLPRPRPRPYWHPRP | -1.53
16 | RRIRIRPPRLPRPRPRPYDDPRP | -0.0134
17 | RRIRLRPPRLPRPRPRPHCLPRP | -0.0829
18 | RRIRMRPPRLPRPRPRPLAGPRP | 0.468
19 | RRIRDRPPRLPRPRPRPTEAPRP | 0.405
20 | RRIRWRPPRLPRPRPRPPEWPRP | 0.36
21 | RRIRPRPPRLPRPRPRPFYNPRP | -0.7
22 | RRIRKRPPRLPRPRPRPHNVPRP | -0.097
23 | RRIRCRPPRLPRPRPRPTAAPRP | 1.33
24 | RRIRYRPPRLPRPRPRPVSRPRP | -0.0816
25 | RRIRWRPPRLPRPRPRPEFSPRP | 0.109

Row | Sequence | shrunken log2 fold change
26 | RRIRSRPPRLPRPRPRPTKLPRP | 0.0448
27 | RRIRSRPPRLPRPRPRPPYCPRP | -0.031
28 | RRIRGRPPRLPRPRPRPYVYPRP | -0.0911
29 | RRIRIRPPRLPRPRPRPVFEPRP | 0.0673
30 | RRIRRRPPRLPRPRPRPAMWPRP | 0.451
31 | RRIRMRPPRLPRPRPRPLHLPRP | -0.254
32 | RRIRVRPPRLPRPRPRPMIPPRP | -0.319
33 | RRIRKRPPRLPRPRPRPCMEPRP | 0.0223
34 | RRIRVRPPRLPRPRPRPNMGPRP | -0.11
35 | RRIRHRPPRLPRPRPRPQLKPRP | 0.114
36 | RRIRTRPPRLPRPRPRPTLGPRP | 0.0554
37 | RRIRERPPRLPRPRPRPWIVPRP | -0.00567
38 | RRIRKRPPRLPRPRPRPWLRPRP | 0.143
39 | RRIRHRPPRLPRPRPRPNAYPRP | -0.219
40 | RRIRARPPRLPRPRPRPKVMPRP | 0.176
41 | RRIRFRPPRLPRPRPRPHFYPRP | -0.38
42 | RRIRTRPPRLPRPRPRPPGPPRP | 0.53
43 | RRIRIRPPRLPRPRPRPGVWPRP | 0.191
44 | RRIRARPPRLPRPRPRPEKSPRP | 1.01
45 | RRIRSRPPRLPRPRPRPMAIPRP | 4e-05
46 | RRIRIRPPRLPRPRPRPYDTPRP | -0.0277
47 | RRIRYRPPRLPRPRPRPSCPPRP | -0.851
48 | RRIRGRPPRLPRPRPRPAMIPRP | 0.2
49 | RRIRDRPPRLPRPRPRPTPTPRP | 0.194
50 | RRIRARPPRLPRPRPRPPYEPRP | 0.194

Row | Sequence | shrunken log2 fold change
51 | RRIRCRPPRLPRPRPRPMEFPRP | -0.0158
52 | RRIRNRPPRLPRPRPRPYIKPRP | -1.03
53 | RRIRCRPPRLPRPRPRPPPCPRP | 1.07
54 | RRIRKRPPRLPRPRPRPCFGPRP | 0.194
55 | RRIRHRPPRLPRPRPRPIYPPRP | -0.158
56 | RRIRMRPPRLPRPRPRPPHIPRP | -0.0498
57 | RRIRIRPPRLPRPRPRPGFKPRP | -0.219
58 | RRIRNRPPRLPRPRPRPDDFPRP | -0.00663
59 | RRIRQRPPRLPRPRPRPVNNPRP | -0.0612
60 | RRIRIRPPRLPRPRPRPERKPRP | 0.00827
61 | RRIRVRPPRLPRPRPRPNPWPRP | -0.0698
62 | RRIRQRPPRLPRPRPRPNNCPRP | -0.138
63 | RRIRNRPPRLPRPRPRPTEDPRP | -0.187
64 | RRIRNRPPRLPRPRPRPWTDPRP | 0.0246
65 | RRIRFRPPRLPRPRPRPHSMPRP | -0.328
66 | RRIRSRPPRLPRPRPRPKPDPRP | 0.22
67 | RRIRPRPPRLPRPRPRPYCNPRP | -0.481
68 | RRIRLRPPRLPRPRPRPQADPRP | 0.112
69 | RRIRGRPPRLPRPRPRPHMEPRP | 0.0707
70 | RRIRYRPPRLPRPRPRPPITPRP | -0.834
71 | RRIRHRPPRLPRPRPRPEWMPRP | 0.188
72 | RRIRCRPPRLPRPRPRPRMFPRP | 0.0907
73 | RRIRGRPPRLPRPRPRPHQFPRP | 0.106
74 | RRIRYRPPRLPRPRPRPKHEPRP | -0.0393
75 | RRIRCRPPRLPRPRPRPQCSPRP | -0.0788

Row | Sequence | shrunken log2 fold change
76 | RRIRWRPPRLPRPRPRPFLDPRP | -0.233
77 | RRIRNRPPRLPRPRPRPAVLPRP | 0.00424
78 | RRIRERPPRLPRPRPRPENMPRP | 0.000515
79 | RRIRSRPPRLPRPRPRPRPCPRP | 0.137
80 | RRIRLRPPRLPRPRPRPEHHPRP | -0.156
81 | RRIRWRPPRLPRPRPRPVCNPRP | 0.0983
82 | RRIRHRPPRLPRPRPRPMDLPRP | 0.00707
83 | RRIRCRPPRLPRPRPRPEWRPRP | 0.391
84 | RRIRWRPPRLPRPRPRPCIWPRP | 0.0256
85 | RRIRARPPRLPRPRPRPMIGPRP | 0.102
86 | RRIRARPPRLPRPRPRPQVEPRP | 0.399
87 | RRIRDRPPRLPRPRPRPSPHPRP | -0.0473
88 | RRIRRRPPRLPRPRPRPDICPRP | 0.0657
89 | RRIRARPPRLPRPRPRPMYMPRP | -0.354
90 | RRIRMRPPRLPRPRPRPYHAPRP | -0.387
91 | RRIRKRPPRLPRPRPRPTRMPRP | 0.651
92 | RRIRKRPPRLPRPRPRPWSFPRP | 0.121
93 | RRIRDRPPRLPRPRPRPRLGPRP | 0.829
94 | RRIRGRPPRLPRPRPRPWQGPRP | 0.015
95 | RRIRKRPPRLPRPRPRPSMVPRP | -0.13
96 | RRIRWRPPRLPRPRPRPGHQPRP | -0.0269
97 | RRIRPRPPRLPRPRPRPKHMPRP | -0.0288
98 | RRIRDRPPRLPRPRPRPPCKPRP | -0.129
99 | RRIRQRPPRLPRPRPRPCCPPRP | -0.192
100 | RRIRERPPRLPRPRPRPNVWPRP | 0.133

Row | Sequence | shrunken log2 fold change
101 | RRIRYRPPRLPRPRPRPLVFPRP | -0.439
102 | RRIRWRPPRLPRPRPRPLTAPRP | 0.436
103 | RRIRFRPPRLPRPRPRPPPWPRP | 0.961
104 | RRIRFRPPRLPRPRPRPTAEPRP | 0.593
105 | RRIRCRPPRLPRPRPRPIWWPRP | 0.475
106 | RRIRSRPPRLPRPRPRPGKQPRP | 0.00846
107 | RRIRCRPPRLPRPRPRPTNSPRP | -0.336
108 | RRIRGRPPRLPRPRPRPLRYPRP | 0.688
109 | RRIRRRPPRLPRPRPRPMKHPRP | -0.191
110 | RRIRYRPPRLPRPRPRPYYKPRP | -0.534
111 | RRIRHRPPRLPRPRPRPKDIPRP | -0.504
112 | RRIRARPPRLPRPRPRPRACPRP | 0.447
113 | RRIRARPPRLPRPRPRPGLNPRP | 0.196
114 | RRIRTRPPRLPRPRPRPSTLPRP | -0.853
115 | RRIRIRPPRLPRPRPRPWTHPRP | -0.0959
116 | RRIRWRPPRLPRPRPRPATVPRP | 0.111
117 | RRIRHRPPRLPRPRPRPFWKPRP | -0.0724
118 | RRIRWRPPRLPRPRPRPDSKPRP | -0.133
119 | RRIRCRPPRLPRPRPRPHPWPRP | -0.158
120 | RRIRWRPPRLPRPRPRPIQRPRP | 0.0678
121 | RRIRVRPPRLPRPRPRPESGPRP | 0.177
122 | RRIRKRPPRLPRPRPRPHELPRP | 0.509
123 | RRIRWRPPRLPRPRPRPVKTPRP | 0.00121
124 | RRIRNRPPRLPRPRPRPNIEPRP | -0.027
125 | RRIRQRPPRLPRPRPRPMHWPRP | 0.0747
